For the test, the target named is T1, extracellular Venus Flytrap (VFT) module of human GBR2 (human, UniProt O75899 42-466, carbohydrate at Asn404).
T1 sequence (looked up): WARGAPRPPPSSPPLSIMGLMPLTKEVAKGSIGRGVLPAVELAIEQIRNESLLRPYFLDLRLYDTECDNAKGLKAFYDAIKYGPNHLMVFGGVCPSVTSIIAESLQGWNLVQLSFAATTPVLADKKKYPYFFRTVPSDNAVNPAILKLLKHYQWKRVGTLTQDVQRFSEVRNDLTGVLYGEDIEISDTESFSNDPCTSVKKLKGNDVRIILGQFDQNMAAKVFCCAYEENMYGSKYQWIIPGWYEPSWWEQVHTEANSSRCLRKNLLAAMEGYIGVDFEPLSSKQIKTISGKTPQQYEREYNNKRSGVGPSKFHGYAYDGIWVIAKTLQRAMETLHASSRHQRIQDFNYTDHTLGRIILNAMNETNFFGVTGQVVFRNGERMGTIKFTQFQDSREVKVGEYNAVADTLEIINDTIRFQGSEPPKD
Put plainly: crystal structure.

B1: extracellular Venus Flytrap (VFT) module of human GBR1b (domain or fragment, UniProt Q9UBS5-2 48-459, looked up)
chain: SERRAVYIGALFPMSGGWPGGQACQPAVEMALEDVNSRRDILPDYELKLIHHDSKCDPGQATKYLYELLYNDPIKIILMPGCSSVSTLVAEAARMWNLIVLSYGSSSPALSNRQRFPTFFRTHPSATLHNPTRVKLFEKWGWKKIATIQQTTEVFTSTLDDLEERVKEAGIEITFRQSFFSDPAVPVKNLKRQDARIIVGLFYETEARKVFCEVYKERLFGKKYVWFLIGWYADNWFKIYDPSINCTVDEMTEAVEGHITTEIVMLNPANTRSISNMTSQEFVEKLTKRLKRHPEETGGFQEAPLAYDAIWALALALNKTSGGGGRSGVRLEDFNYNNQTITDQIYRAMNSSSFEGVSGHVVFDASGSRMAWTLIEQLQGGSYKKIGYYDSTKDDLSWSKTDKWIGGSPPAD
modifications: carbohydrate at Asn323 and Asn365 (seen in apo and antagonist-bound structures)
As to B1, the binding result is reported as “binds”.

The record behind these values is paper PMC3865065 (Nature, 2013).
